Literature values as cited in paper PMC3369218 (Biochemistry, 2012).

B1: WT CcP from S. cerevisiae: wild-type cytochrome c peroxidase (protein, UniProt P00431 68-361, looked up)
Cytochrome c peroxidase, …: TTPLVHVASVEKGRSYEDFQKVYNAIALKLREDDEYDNYIGYGPVLVRLAWHTSGTWDKHDNTGGSYGGTYRFKKEFNDPSNAGLQNGFKFLEPIHKEFPWISSGDLFSLGGVTAVQEMQGPKIPWRCGRVDTPEDTTPDNGRLPDADKDADYVRTFFQRLNMNDREVVALMGAHALGKTHLKNSGYEGPWGAANNVFTNEFYLNLLNEDWKLEKNDANNEQWDSKSGYMMLPTDYSLIQDPKYLSIVKEYANDQDKFFKDFSKAFEKLLENGITFPKDAPSPFIFKTLEEQGL
B2: CcP(R48K) from S. cerevisiae: cytochrome c peroxidase R48K distal pocket mutant (protein, UniProt P00431 68-361, looked up, variant R48K)
Cytochrome c peroxidase, …: TTPLVHVASVEKGRSYEDFQKVYNAIALKLREDDEYDNYIGYGPVLVKLAWHTSGTWDKHDNTGGSYGGTYRFKKEFNDPSNAGLQNGFKFLEPIHKEFPWISSGDLFSLGGVTAVQEMQGPKIPWRCGRVDTPEDTTPDNGRLPDADKDADYVRTFFQRLNMNDREVVALMGAHALGKTHLKNSGYEGPWGAANNVFTNEFYLNLLNEDWKLEKNDANNEQWDSKSGYMMLPTDYSLIQDPKYLSIVKEYANDQDKFFKDFSKAFEKLLENGITFPKDAPSPFIFKTLEEQGL
B3: Cld from I. dechloratans: chlorite dismutase from Ideonella dechloratans (protein, UniProt Q9F437 39-285, looked up)
Chlorite dismutase: AMNTPVDRAKILSAPGVFVAFSTYKIRPDYFKVALAERKGAADEVMAVLEKHKEKVIVDAYLTRGYEAKSDYFLRVHAYDAVAAQAFLVDFRATRFGMYSDVTESLVGITKALNYISKDKSPDLNKGLSGATYAGDAPRFAFMIPVKKNADWWNLTDEQRLKEMETHTLPTLPFLVNVKRKLYHSTGLDDTDFITYFETNDLGAFNNLMLSLAKVPENKYHVRWGNPTVLGTIQPIENLVKTLSMGN

Conditions: for E′ (Fe^3+/Fe^2+): 25 °C, pH 7

| Molecule | E′ (Fe^3+/Fe^2+) | reduction potential |
| --- | --- | --- |
| B1 | –0.189 V vs NHE | – |
| B2 | –0.186 V vs NHE | – |
| B3 | –0.021 V vs NHE | –21 mV |
